The results in this text go back to the supplement of paper PMC10567573.

A short description of this data set: protein stability index of a GFP-peptide fusion (GPS, HEK-293T) (PSI 1-6); higher = more stable. As to conditions: c terminus: a fixed tail appended.

± gives the standard deviation.
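Note: 24-mer peptide tiles fused after GFP, lentivirally expressed, FACS-sorted into six equal bins by GFP/DsRed ratio, decoded by Illumina sequencing, PSI is the read-weighted mean bin number.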

On to ELPDPLGGLLDEAMLDEISLMDLA [NFE2L1], for which the protein stability index was found to be 4.26 ± 0.54 (treatment: DMSO) and 4.55 ± 0.23 (treatment: MLN4924 1 uM, 8 h).
For the sequence ELPTRIHEEVYFEPSSSKDSDENS [MIA2], the protein stability index runs as follows: (treatment: DMSO) 5.34 ± 0.14; (treatment: MLN4924 1 uM, 8 h) 4.79 ± 0.58.
For ELQGLPELHEECEGNHPSARKLTA [NET1], in that order: 4.87 ± 0.21 and 4.56 ± 0.41.
For ELRLVFGPLGDQLHAQLRDLTSSS [ELF3], in that order: 2.17 ± 0.25 and 2.25 ± 0.29.
For ELRRQAPPPPPPSRGGPPPPPPPP [WASL], in that order: 4.49 ± 0.44 and 4.64 ± 0.09.
ELSEVLENQSSQAELKEAVEEPSS [CHGA]: the protein stability index reads like this: (treatment: DMSO) 5.78 ± 0.21; (treatment: MLN4924 1 uM, 8 h) 5.67 ± 0.34.
Turning to ELTLARTDLEMQIEGLKEELAYLR [KRT16], the protein stability index is, setting by setting: (treatment: DMSO) 2.95 ± 0.61; (treatment: MLN4924 1 uM, 8 h) 2.79 ± 0.44.
Take EMSKDANFGLRLVVQRCSGQKWMI [GALNT9]: the protein stability index runs as follows: (treatment: DMSO) 2.2 ± 0.65; (treatment: MLN4924 1 uM, 8 h) 2.85 ± 1.
For EMTPEKFSVLMEKLCKKGLAATTS [FANCE], in that order: 2.75 ± 0.57 and 2.88 ± 0.36.
Turning to ENHEIYMKDSMSAAEVGTGQYATT [EPB41L3], the protein stability index reads like this: (treatment: DMSO) 4.79 ± 0.22; (treatment: MLN4924 1 uM, 8 h) 4.83 ± 0.3.
For EPEEPSEIPERRDSGVGASLTRSN [DLC1], in that order: 5.51 ± 0.31 and 5.46 ± 0.33.
In turn, EPGPAGPPPPPSPSSLGPLLPLQR [BTBD1] registered a protein stability index (treatment: DMSO) of 4.75 ± 0.24 and a protein stability index (treatment: MLN4924 1 uM, 8 h) of 4.76 ± 0.52.
Turning to EPITGWRKTVCHNGVLGLSRLLFF [LPCAT4], the protein stability index reads like this: (treatment: DMSO) 2.57 ± 0.71; (treatment: MLN4924 1 uM, 8 h) 2.2 ± 0.37.
EPLFEAGDATLASDLQDWASVGAF [FOXJ1]: the protein stability index came out at 3.85 ± 0.14 (treatment: DMSO) and 3.92 ± 0.4 (treatment: MLN4924 1 uM, 8 h).
EPLVLYNQNLSNRPSFNRTPIPWL [MYOZ1] had a protein stability index (treatment: DMSO) of 2.39 ± 0.4 and a protein stability index (treatment: MLN4924 1 uM, 8 h) of 2.44 ± 0.17.
For EPQTEHQQESESEIDSVPKTQSEL [MIA2], in that order: 5.46 ± 0.13 and 5.59 ± 0.21.
EPQWFYEETESSDDVEVLTLKKFK [C8orf76] came in with a protein stability index (treatment: DMSO) of 4.66 ± 0.094 and a protein stability index (treatment: MLN4924 1 uM, 8 h) of 4.74 ± 0.15.
For ESEGSESSGRSCRNERSIQEKLQV [SMG5], in that order: 4.82 ± 0.12 and 4.75 ± 0.27.
For ESSVPVTPSVPPPASQHSTPAGLP [FBF1], in that order: 5.04 ± 0.18 and 5.19 ± 0.17.
For ETAVEGDPSGVSGATVGRKSRRSR [C18orf25], in that order: 5.484 ± 0.04 and 5.5 ± 0.25.
In turn, ETEARYSSQLAQMQCLISNVEAQL [KRT36] yielded a protein stability index (treatment: DMSO) of 3.26 ± 0.31 and a protein stability index (treatment: MLN4924 1 uM, 8 h) of 3.2 ± 0.34.
For ETLPELKDDKDFTGTVHRIDNTTV [KCNA1], in that order: 5.12 ± 0.24 and 5.17 ± 0.072.
Consider ETRVWHRRDGKWQNVHFHRSGSPT [CAMK2D], for which the protein stability index is 3.74 ± 0.35 (treatment: DMSO) and 3.71 ± 0.17 (treatment: MLN4924 1 uM, 8 h).
On to EVEKRGINGSEGDGAEIAEKFVFF [DYNC2LI1], for which the protein stability index (treatment: DMSO) is 3.8 ± 0.33 and the protein stability index (treatment: MLN4924 1 uM, 8 h) amounted to 4.41 ± 0.34.
Turning to EVLRRLTSSVSCALDEAAAALTRM [ANKRD17], the protein stability index was determined as 2.3 ± 0.53 (treatment: DMSO) and 2.1 ± 0.3 (treatment: MLN4924 1 uM, 8 h).
For EVLRSEAGIELIIEDDIRPEKQKR [MYBL2], in that order: 4.21 ± 0.24 and 4.31 ± 0.34.
For EVVMNSQQTPVGTPKDKRVSNTPL [PALM], in that order: 3.44 ± 0.2 and 3.61 ± 0.2.
Turning to EWNQKRARKAMRNGISPIIIDNTN [N4BP2L1], the protein stability index (treatment: DMSO) is 2.65 ± 0.16 and the protein stability index (treatment: MLN4924 1 uM, 8 h) amounted to 3.02 ± 0.55.
For EYQLFEELGKGAFSVVRRCMKIPT [CAMK2D], in that order: 2.07 ± 0.27 and 2.2 ± 0.54.
For FDLAKGNAGKVNLPKELPADAVNL [PLAGL1], in that order: 4.41 ± 0.21 and 4.5 ± 0.29.
For FDPDAKGLSDPGKIKRLRSQVQVS [HNF4A], in that order: 3.84 ± 0.18 and 4.06 ± 0.28.
As for FEDLNKRKDTKEIYTHFTCATDTK [GNAI1], the protein stability index by setting is: (treatment: DMSO) 4.57 ± 0.16; (treatment: MLN4924 1 uM, 8 h) 4.41 ± 0.42.
For FEEFVHYLQDHEKKLRLVFKSLDK [SLC25A25], in that order: 2.18 ± 0.27 and 2.51 ± 0.31.
For FFRMFDRNTKRDVTLEASRENSKP [PPP2R2B], in that order: 3.45 ± 0.14 and 3.82 ± 0.23.
For FGAAYVLEQASSHIGNSTQATVRD [ATL3], in that order: 3.06 ± 0.28 and 3.72 ± 0.33.
Take FGLTYRDAENQKNWLDPAKEIKKQ [EPB41L3]: the protein stability index by setting is: (treatment: DMSO) 3.68 ± 0.082; (treatment: MLN4924 1 uM, 8 h) 4.15 ± 0.089.
For FGTIISGIQLLIVEYKDIASIHWD [SLC35F2], in that order: 3.15 ± 0.29 and 3 ± 0.34.
Regarding FHNLRNTLDGYGIHPKSIDLDNYF [NFE2L1], the protein stability index is, setting by setting: (treatment: DMSO) 2.31 ± 0.44; (treatment: MLN4924 1 uM, 8 h) 2.07 ± 0.15.
FKHTLSISRALLSDVVPEKERPLV [MFSD9] displayed a protein stability index (treatment: DMSO) of 3.04 ± 0.12 and a protein stability index (treatment: MLN4924 1 uM, 8 h) of 3.24 ± 0.21.
On to FLAAEQDIREEIRKVVQSLEQTAR [TSN], for which the protein stability index reads like this: (treatment: DMSO) 2.57 ± 0.45; (treatment: MLN4924 1 uM, 8 h) 3.25 ± 0.64.
For FLFNSELLSDVRFVLGKGRGAAAA [BTBD1], in that order: 2.12 ± 0.33 and 2.33 ± 0.34.
For FLMLINLGLGSMIGTMAGITTPII [SLC6A17], in that order: 3.1 ± 0.31 and 3.03 ± 0.76.
For FLQEEAIDRNYVPGKSLAVSCPGW [SNX12], in that order: 2.73 ± 0.3 and 3.2 ± 0.2.
With FMLMLLVLGIQVKCFHEIITIGYR [CDS1], the protein stability index was found to be 3.31 ± 0.45 (treatment: DMSO) and 3.3 ± 0.41 (treatment: MLN4924 1 uM, 8 h).
For FNIFDWLGRSLTAVFMWPGKDSRW [SLC29A1], in that order: 2.45 ± 0.79 and 2.63 ± 0.5.
For FPKSEQVYLHFLSVVTEDGPEPKD [ZNF232], the protein stability index was 2.58 ± 0.5 (treatment: DMSO) and 3.39 ± 0.56 (treatment: MLN4924 1 uM, 8 h).
For FQTRQEMTSMSAELKMRAIQAEER [LRRC45], in that order: 4.12 ± 0.29 and 4.48 ± 0.22.
As for FQVLCSINSIIHNPRAPVIIYKQT [CEP70], the protein stability index reads like this: (treatment: DMSO) 2.76 ± 0.83; (treatment: MLN4924 1 uM, 8 h) 2.6 ± 1.1.
As for FSGSNEVDQMNRIVEVLGIPPAAM [DYRK1B], the protein stability index by setting is: (treatment: DMSO) 2.94 ± 0.14; (treatment: MLN4924 1 uM, 8 h) 3.23 ± 0.22.
For FSIPPWRYDAEVVAIAQKFAALRA [MYORG], in that order: 2.15 ± 0.3 and 2.22 ± 0.17.
Sequence FSPTPPQQFQPAGTDQVCVLEWGA [FCHSD1] showed a protein stability index (treatment: DMSO) of 2.49 ± 0.27 and a protein stability index (treatment: MLN4924 1 uM, 8 h) of 2.86 ± 0.35.
For FSTRALVLSILHATLPGIFMLLLI [SOAT2], in that order: 3.16 ± 0.35 and 3.37 ± 0.52.
For FTQSGPIVSRATGRCLEVEMSKDA [GALNT9], in that order: 2.71 ± 0.35 and 3.34 ± 0.54.
Consider FYQHLLLYIQSHYQLELQCCIDWT [SMG5], for which the protein stability index by setting is: (treatment: DMSO) 3.17 ± 0.36; (treatment: MLN4924 1 uM, 8 h) 3.02 ± 0.38.
For GAFGIVHLCLRKADQKLVIIKQIP [NEK8], in that order: 2.55 ± 0.48 and 2.3 ± 0.33.
Take GAFPPRGPRPVQSVVPEMEESGAQ [CDK4]: the protein stability index was 5.22 ± 0.32 (treatment: DMSO) and 5.23 ± 0.18 (treatment: MLN4924 1 uM, 8 h).
For GAHEQVDFKDFYPAIADLFAESLQ [P3H4], in that order: 2.84 ± 0.51 and 3.08 ± 0.53.
For GAKDHASIQMNVAEVSWEPGRREG [RPS21], in that order: 4.14 ± 0.49 and 4.41 ± 0.41.
For GATVRSFSINSRLASSLGNLNAAT [CDC14A], in that order: 2.98 ± 0.1 and 2.92 ± 0.21.
As for GCGWRCPEHGDRVAELFCRRCRRC [TRIM14], the protein stability index came to 3.69 ± 0.27 (treatment: DMSO) and 4.12 ± 0.18 (treatment: MLN4924 1 uM, 8 h).
GCLLPDGSRMMAVAALVVNFSQPV [NLN]: the protein stability index reads like this: (treatment: DMSO) 3.04 ± 0.46; (treatment: MLN4924 1 uM, 8 h) 2.75 ± 0.81.
Consider GDAHFDEDERWTNNFREYNLHRVA [MMP1], for which the protein stability index reads like this: (treatment: DMSO) 3.84 ± 0.18; (treatment: MLN4924 1 uM, 8 h) 4.11 ± 0.33.
For GDDGIVVVWNAQTGEKLLELNGHT [WDR41], in that order: 3.39 ± 0.11 and 3.3 ± 0.35.
As for GDFEEAFDHLQNRLIATKNPEEIR [TENT5C], the protein stability index was determined as 5.16 ± 0.17 (treatment: DMSO) and 5.19 ± 0.21 (treatment: MLN4924 1 uM, 8 h).
For GDTVVQGDLQETTVVTGLGPDTQD [PBXIP1], in that order: 5.56 ± 0.17 and 5.63 ± 0.23.
Turning to GEAMLANFKPRGYSECIVTVGGEE [GAN], the protein stability index is, setting by setting: (treatment: DMSO) 4.38 ± 0.42; (treatment: MLN4924 1 uM, 8 h) 4.18 ± 0.41.
For GEARFLPKDLDPSLCTHLIYAFAG [CHIT1], in that order: 2.36 ± 0.27 and 2.44 ± 0.49.
For GEGLNVIQQTTRYFSTPQTMDLFL [NANOGP8], in that order: 2.09 ± 0.34 and 2.32 ± 0.057.
For GEVVKIPSRVHGSLEPFRPQQAPQ [PWWP2B], in that order: 4.22 ± 0.21 and 4.16 ± 0.23.
Sequence GFEYDGKINAWDLYYYMTQTEELK [NLN] came in with a protein stability index (treatment: DMSO) of 2.81 ± 0.035 and a protein stability index (treatment: MLN4924 1 uM, 8 h) of 2.49 ± 0.39.
For GFIRHTVNKITFSEQCYYIFGDLC [DVL3], in that order: 3.11 ± 0.86 and 2.64 ± 0.16.
For GGLMARPEYREWNPELIKPKKLLN [FAM107A], in that order: 3.68 ± 0.36 and 4.495 ± 0.034.
